Laboratory results from publication PMC6367419 (Nature Communications, 2019).

B1: EscN^29–446 (EPEC type III secretion system ATPase EscN, residues 29–446) (enzyme)
chain: NSSTRYEGKIINIGGTIIKARLPKARIGAFYKIEPSQRLAEVIAIDEDEVFLLPFEHVSGMYCGQWLSYQGDEFKIRVGDALLGRLIDGIGRPMESNIVAPYLPFERSLYAEPPDPLLRQVIDQPFILGVRAIDGLLTCGIGQRIGIFAGSGVGKSTLLGMICNGASADIIVLALIGERGREVNEFLALLPQSTLSKCVLVVTTSDRPALERMKAAFTATTIAEYFRDQGKNVLLMMDSVTRYARAARDVGLASGEPDVRGGFPPSVFSSLPKLLERAGPAPKGSITAIYTVLLESDNVNDPIGDEVRSILDGHIVLTRELAEENHFPAIDIGLSASRVMHNVVTSEHLRAAAECKKLIATYKNVELLIRIGEYTMGQDPEADKAIKNRKLIQNFIQQSTKDISSYEKTIESLFKVVA
notes: also called T3SS ATPase; chains NA to NF; source: E. coli BL21 (λDE3), purified (HisTrap HP, thrombin cleavage, second HisTrap HP, desalting)
B2: EscO^1–125 (full-length EPEC central stalk protein EscO) (natural protein)
chain: MLDRILSIRKSRANRLRESMAKINSQIKEVDGKLDDCEQAIKESIASKQAYCASLVNLDKVSLYKYQIKNNAFDEQKQRLYEKKSSLSKEKRSLLDSQKRTKEDLQHVNKSIEKLSFAIKEHYFD
notes: source: E. coli BL21 (λDE3), purified (HisTrap HP, thrombin cleavage, second HisTrap HP, desalting)

Assays:
[1] = biological target: T1, EscN-EscO complex (EscN^29–446 with EscO^1–125) (Escherichia coli, UniProt B7UMA6); assay: cryo-EM structure, […] Å; assay type: binding; set-up: EscN residues 29-446 plus full-length EscO (125 residues); N-terminal 6His tags cleaved with thrombin (tag residue 0 left on EscO); E. coli BL21(DE3); 6:1 complex; with Type III secretion system central stalk protein EscO; settings: bound as transition state analogue Mg2+ADP-AlF3; pH 7.5; catalytic inter-subunit sites (four of six)
[2] = biological target: T1, EscN-EscO complex (EscN^29–446 with EscO^1–125); settings: 3 mM ATP, 500 nM EscN, EscO 1:1 molar, 37 °C; pre-incubated with Mg2+ADP-AlF3, diluted out before assay
[3] = biological target: EscN^29–446 (EPEC type III secretion system ATPase EscN, residues 29–446) (enteropathogenic Escherichia coli (EPEC) O127:H6 E2348/69) (UniProt B7UMA6)
[4] = biological target: the molecule itself; assay: cryo-EM structure
[5] = biological target: B1; assay: cryo-EM structure; settings: both partners purified

How did the “cryo-EM structure, 3.29 Å” value [1] turn out when `Nc1ncnc2c1ncn2[C@@H]1O[C@H](COP(=O)(O)OP(=O)(O)O)[C@@H](O)[C@H]1O` [ADP] was run?
The value was “Sample density of the class two catalytic site ligands ADP, AlF3 (grey and cyan)”.

How did the “EnzChek phosphate release ATPase assay” value [2] turn out when `Nc1ncnc2c1ncn2[C@@H]1O[C@H](COP(=O)(O)OP(=O)(O)OP(=O)(O)O)[C@@H](O)[C@H]1O` [ATP] was run?
Its value is “found to further enhance EscN oligomerization and ATPase activity”.

How did the decrease in catalytic rate of EscN ATPase (EnzChek) with the EscO mutant against wild-type EscO [3] turn out when “EscO^1–125 Lys110Glu/Lys114Glu (natural protein)” was run?
Its decrease in catalytic rate of EscN ATPase (EnzChek) with the EscO mutant against wild-type EscO is 50%.

For B1, which “stoichiometry N” value [4] is on record?
Its value is 6.

With B2 as the molecule, how does the “stoichiometry N” value [5] read?
The value was 1 EscO per EscN hexamer.
